One assay has as its system lung cancer cells A549. The experiment in a line: CCK8 cell viability detection, A549. The assay is classed as cell-based, human. Particulars: CCK8, 24 h treatment; read-out: IC50, inhibition of A549 cells. The procedure: (§1) CCK8 cell viability detection: cell suspension was seeded in 96-well plates at a concentration of 5×10^4 cells/ml (100 μL/well). The plates were placed in the incubator for pre-culture (at 37° C., 5% CO2), and control and protein agents were added to each well 24 h after seeding. The plates were then placed in the incubator for 24 h, followed by addition of 10 μL CCK8 solution into each well and incubation of the plates in the incubator for 0.5-2 h before the absorbance measurement at 450 nm using a microplate reader.
(§2) Analysis of effect of GhJAZ1 protein on the cell cycle and apoptosis of tumor cells

The subject of assay [1] is ovarian cancer cells SKOV3. Put plainly: CCK8 cell viability detection, SKOV3. The assay is classed as cell-based, human. Particulars: CCK8, 24 h treatment; read-out: IC50, inhibition of SKOV3 cells. The procedure:
as §1, §2

A further assay has as its system GhMYC2. Put plainly: Luciferase experiment in tobacco leaves with GhMYC2. The assay is classed as binding, cotton. Particulars: no fluorescence on the control. The text has this: Method of the luciferase experiment: GhJAZ1 (corresponding encoding gene sequence set forth in SEQ ID No. 39) was subcloned into pCAMBIA-CLuc vector (Chen, H., et al. “Firefly Luciferase Complementation Imaging Assay for Protein-Protein Interactions in Plants.” Plant Physiology 146.2(2008):368-376.) between KpnI and SalI cleavage sites, and the transcription factors such as GhMYC2 (corresponding encoding gene sequence set forth in SEQ ID No. 72), GhNINJA (corresponding encoding gene sequence set forth in SEQ ID No. 74), and GhCOI1 (corresponding encoding gene sequence set forth in SEQ ID No. 80) were subcloned into pCAMBIA-NLuc (Chen, H., et al. “Firefly Luciferase Complementation Imaging Assay for Protein-Protein Interactions in Plants.” Plant Physiology 146.2(2008):368-376.) between KpnI and SalI cleavage sites, respectively. […] Luciferase substrates were applied at the infected leaves before taking images and placed in a dark room for at least 6 min to quench fluorescence, followed by observation on the Nightowl-II LB983 instrument, using IndigoBasic software under the luciferase-5 min setting conditions.
GhMYC2, sequence (as listed by the source): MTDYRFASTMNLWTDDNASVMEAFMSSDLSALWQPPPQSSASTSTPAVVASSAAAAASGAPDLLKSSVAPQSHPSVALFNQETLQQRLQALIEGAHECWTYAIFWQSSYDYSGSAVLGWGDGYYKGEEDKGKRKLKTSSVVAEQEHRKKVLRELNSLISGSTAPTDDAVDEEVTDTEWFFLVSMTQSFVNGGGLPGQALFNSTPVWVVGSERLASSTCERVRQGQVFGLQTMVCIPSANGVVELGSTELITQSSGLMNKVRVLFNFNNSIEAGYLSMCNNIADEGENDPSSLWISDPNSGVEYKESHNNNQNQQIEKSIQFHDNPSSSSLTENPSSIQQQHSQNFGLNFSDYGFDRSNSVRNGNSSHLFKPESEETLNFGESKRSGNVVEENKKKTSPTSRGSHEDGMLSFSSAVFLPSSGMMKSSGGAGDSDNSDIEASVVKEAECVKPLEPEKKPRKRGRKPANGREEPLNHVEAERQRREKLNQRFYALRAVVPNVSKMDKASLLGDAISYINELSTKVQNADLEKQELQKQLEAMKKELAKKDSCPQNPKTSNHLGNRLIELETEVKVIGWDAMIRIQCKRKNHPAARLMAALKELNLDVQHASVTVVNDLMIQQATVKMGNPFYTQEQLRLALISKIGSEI

B1: GhJAZ1: cotton JAZ1 protein, gene number Gh_A05G0260, sequence SEQ ID No. 4; prokaryotically expressed with His tag, about 30 KD (protein)
chain: MSSCSESTAMKPARSPEKPSFAQTCNLLSQYLKEKGSFGDLSLGMTCNVEANGTPVVPPPTMNLFPLNDKSDDVCGRNGGNPKNLTSMDLFPQQAGLASKDDSPNKLEPQTAPMTIFYGGQVIVFNDFPANKAKEIMLLASNSSSQSNNSFNPIPFTSSIARSPIESSIGVPPTSKPVHPAQRAVPGDLPIARRASLHRFLEKRKDRITAKAPYQINNSAAAPSLSGDNKSWLGLAAQSP
modifications: His tag
notes: prokaryotically expressed with His tag, about 30 KD
As for B1, the IC50 came to 697 nM in the assay with lung cancer cells A549 and 784 nM in assay [1]. Further, in the assay on GhMYC2, the “fluorescence with GhMYC2 after applying luciferase substrate” value is listed as “stronger fluorescence”.

Broadly, the IC50 is the point on the concentration scale where inhibition reaches its midpoint.
